T1: human DR3, full-length, expressed on HEK293 NFkB-luciferase reporter cells (human, UniProt Q93038 25-417)
T1 sequence: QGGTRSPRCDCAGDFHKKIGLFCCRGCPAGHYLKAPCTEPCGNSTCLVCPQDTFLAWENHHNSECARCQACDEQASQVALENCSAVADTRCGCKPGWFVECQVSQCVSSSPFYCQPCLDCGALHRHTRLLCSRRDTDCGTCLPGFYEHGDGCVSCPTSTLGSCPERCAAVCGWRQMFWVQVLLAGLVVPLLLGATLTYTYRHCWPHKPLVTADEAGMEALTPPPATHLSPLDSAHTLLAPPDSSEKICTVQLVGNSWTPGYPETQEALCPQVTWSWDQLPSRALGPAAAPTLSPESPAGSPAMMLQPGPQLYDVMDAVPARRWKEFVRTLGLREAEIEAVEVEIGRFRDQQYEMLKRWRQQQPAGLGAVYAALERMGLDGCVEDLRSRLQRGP

T2: Fhm, hTL1A(Q167R), soluble, E. coli-expressed, residues 72-251 of SEQ ID NO:246 (human, UniProt O95150 72-251)
T2 construct: with or without N-terminal Met
T2 chain: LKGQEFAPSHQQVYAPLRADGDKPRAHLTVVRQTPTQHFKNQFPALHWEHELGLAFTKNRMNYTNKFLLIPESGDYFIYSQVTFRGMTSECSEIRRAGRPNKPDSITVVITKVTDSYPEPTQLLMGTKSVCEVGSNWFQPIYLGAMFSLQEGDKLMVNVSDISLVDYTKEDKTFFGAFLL

B1: mouse TL1A, soluble, E. coli-expressed, residues 76-252 of SEQ ID NO:250 (ligand)
chain: ITEERSEPSPQQVYSPPRGKPRAHLTIKKQTPAPHLKNQLSALHWEHDLGMAFTKNGMKYINKSLVIPESGDYFIYSQITFRGTTSVCGDISRGRRPNKPDSITMVITKVADSYPEPARLLTGSKSVCEISNNWFQSLYLGATFSLEEGDRLMVNVSDISLVDYTKEDKTFFGAFLL
B2: cynomolgus monkey TL1A, soluble, E. coli-expressed, residues 72-251 of SEQ ID NO:248 (ligand)
chain: LKGQEFAPSHQQVYAPLRADGDKPRAHLTVVRQTPTQHLKNQFPALHWEHELGLAFTKNRMNYTNKFLLIPESGDYFVYSQVTFRGMTSECSEIRQAGRPNKPDSITVVITKVTDSYPEPTQLLMGTKSVCEVGSNWFQPIYLGAMFSLQEGDKLMVNVSDISLVDYTKEDKTFFGAFLL

Assays:
[1] = target: T1, human DR3, full-length, expressed on …; test: cell-based or functional assay
[2] = target: B1; test: SPR 25C, steady state
Procedure: Measurements were conducted on a T100 BIACORE™ instrument. […] Kinetic association (kₐ) and dissociation (kd) rate constants were determined by fitting the data to a 1:1 binding model using BIAevaluation 4.1 curve fitting software (BIAcore Life Sciences). Molar concentrations of TL1A/Fhm used in the data fitting assumed a monomeric state for TL1A in solution. […]

[3] = target: T2, Fhm, hTL1A(Q167R), soluble, E. …; test: SPR 25C, mAb captured
Procedure: (§1) Measurements were conducted on a T100 BIACORE™ instrument. […] Kinetic association (kₐ) and dissociation (kd) rate constants were determined by fitting the data to a 1:1 binding model using BIAevaluation 4.1 curve fitting software (BIAcore Life Sciences). Molar concentrations of TL1A/Fhm used in the data fitting assumed a monomeric state for TL1A in solution. Binding dissociation equilibrium constants (KD) and dissociative half-lives (t_{1/2}) were calculated from the kinetic rate constants as: KD (M)=kd/kₐ; and t_{1/2} (min)=[In2/(60*kd)].

[4] = target: B2; test: SPR 25C, mAb captured
Procedure: as §1

[5] = target: B2; test: SPR 37C, mAb captured
Procedure: as §1

| Binder | EC50, NFkB-luciferase reporter [1] [nM] | also measured |
| --- | --- | --- |
| mouse TL1A, soluble, CHO-expressed, residues 76-252 of SEQ ID NO:250 with N-terminal His6-tag (ligand) HHHHHHITEERSEPSPQQVYSPPRGKPRAHLTIKKQTPAPHLKNQLSALHWEHDLGMAFTKNGMKYINKSLVIPESGDYFIYSQITFRGTTSVCGDISRGRRPNKPDSITMVITKVADSYPEPARLLTGSKSVCEISNNWFQSLYLGATFSLEEGDRLMVNVSDISLVDYTKEDKTFFGAFLL | 0.08 |  |
| human TL1A, soluble, CHO-expressed, residues 72-251 of SEQ ID NO:244 with N-terminal His6-tag (ligand) HHHHHHLKGQEFAPSHQQVYAPLRADGDKPRAHLTVVRQTPTQHFKNQFPALHWEHELGLAFTKNRMNYTNKFLLIPESGDYFIYSQVTFRGMTSECSEIRQAGRPNKPDSITVVITKVTDSYPEPTQLLMGTKSVCEVGSNWFQPIYLGAMFSLQEGDKLMVNVSDISLVDYTKEDKTFFGAFLL | 0.63 |  |
| Fhm, hTL1A(Q167R), soluble, CHO-expressed, residues 72-251 of SEQ ID NO:246 (ligand) HHHHHHLKGQEFAPSHQQVYAPLRADGDKPRAHLTVVRQTPTQHFKNQFPALHWEHELGLAFTKNRMNYTNKFLLIPESGDYFIYSQVTFRGMTSECSEIRRAGRPNKPDSITVVITKVTDSYPEPTQLLMGTKSVCEVGSNWFQPIYLGAMFSLQEGDKLMVNVSDISLVDYTKEDKTFFGAFLL | 0.32 |  |
| cynomolgus monkey TL1A, soluble, CHO-expressed, residues 72-251 of SEQ ID NO:248 with N-terminal His6-tag (ligand) HHHHHHLKGQEFAPSHQQVYAPLRADGDKPRAHLTVVRQTPTQHLKNQFPALHWEHELGLAFTKNRMNYTNKFLLIPESGDYFVYSQVTFRGMTSECSEIRQAGRPNKPDSITVVITKVTDSYPEPTQLLMGTKSVCEVGSNWFQPIYLGAMFSLQEGDKLMVNVSDISLVDYTKEDKTFFGAFLL | 0.86 |  |
| B1 | 0.01 |  |
| H2M1704N (antibody, V domains shown, chimeric hybridoma antibody: human variable regions, mouse constant regions (mouse Fc)) VH: EVQLVESGGGLVQPGGSLRLSCAVSGFTFSSYWMSWVRQAPGKGLEWVANIKEDGSEKNYVDSVKGRFTLSSDNAKNSLYLQMNSLRAEDTAVYYCAREDYDSYYKYGMDVWGQGTAVIVSS VL: not shown |  | Kd [2]: 127 nM; Kd [3]: 0.282 nM; t1/2 [3]: 52 min; Kd [4]: 0.285 nM; t1/2 [4]: 57 min; Kd [5]: 0.751 nM; t1/2 [5]: 16 min |
| human TL1A, soluble, E. coli-expressed, residues 72-251 of SEQ ID NO:244 (ligand) LKGQEFAPSHQQVYAPLRADGDKPRAHLTVVRQTPTQHFKNQFPALHWEHELGLAFTKNRMNYTNKFLLIPESGDYFIYSQVTFRGMTSECSEIRQAGRPNKPDSITVVITKVTDSYPEPTQLLMGTKSVCEVGSNWFQPIYLGAMFSLQEGDKLMVNVSDISLVDYTKEDKTFFGAFLL | 0.12 |  |
| B2 | 2.02 |  |
| rat TL1A, soluble, CHO-expressed, residues 76-252 of SEQ ID NO:258 with N-terminal His6-tag (ligand) HHHHHHVTEERSAPSAQPVYTPSRDKPKAHLTIMRQTPVPHLKNELAALHWENNLGMAFTKNRMNYTNKFLVIPESGDYFIYSQITFRGTTSECGDISRVRRPKKPDSITVVITKVADSYPEPAHLLTGTKSVCEISSNWFQPIYLGAMFSLEEGDRLMVNVSDISLVDYTKEDKTFFGAFLI | 0.06 |  |
